# Measurements reported in PMC13627713.
# B1: DB20 20-bp DNA (dsDNA)
# DNA 1: TATTTACTTTATGTTCATTT
# DNA 2: AAATGAACATAAAGTAAATA
# Biological target: Smc5/6 hexamer (wild type) (Saccharomyces cerevisiae W303, UniProt Q08204;Q12749;Q07913;P38632;Q05541;P43124 1-1093;1-1114;1-336;1-267;1-303;1-402)
# Assay: EMSA
binder,measurement,value
B1,binding result,binds
